target: T1, Human factor D (Advanced Research Inc) (human, UniProt P00746 26-253); assay: SPR (BIAcore), human factor D amine-coupled to CM5 chip, Fab as analyte, 1:1 model, global fit
T1 construct: Amine-coupled directly to a CM5 chip for BIAcore; also called factor D antigen
Experimental: Immobilization—Human factor D (Advanced Research Inc, 0.1 mg/ml) was directly immobilized onto the CM5 chip (BiaCore) using amine-coupling method. The procedure is briefly described as following: (1) Constant flow (PBS) is at 5 μl/min, (2) Injection of 35 μl EDC/NHS (1:1). (3) Injection of 35 μl of human factor D in acetate buffer, pH 4.5. (4) Block the activated group by injection of 35 μl etholamine. (5) Clean-up the surface by 5 μl 10 mM Glycine pH 1.5.
Kinetic analysis—All anti-human factor D Fabs were diluted in PBS buffer. Each sample was prepared in a series of concentrations: 12.5 nM, 25 nM. 50 nM, 75 nM, 100 nM, 125 nM, and 150 nM, with 40 μl injection pulse at high acquisition rate. Regeneration was accomplished by applying 5 μl pulse of 10 mM Glycine at pH 1.5. Kinetic parameters were obtained by fitting Fabs binding traces to 1:1 binding model under pseudo-first order kinetic using BIAvaluation version 3.0. All data are obtained by global fitting routine.

T1 sequence (P00746 26-253 limits assumed): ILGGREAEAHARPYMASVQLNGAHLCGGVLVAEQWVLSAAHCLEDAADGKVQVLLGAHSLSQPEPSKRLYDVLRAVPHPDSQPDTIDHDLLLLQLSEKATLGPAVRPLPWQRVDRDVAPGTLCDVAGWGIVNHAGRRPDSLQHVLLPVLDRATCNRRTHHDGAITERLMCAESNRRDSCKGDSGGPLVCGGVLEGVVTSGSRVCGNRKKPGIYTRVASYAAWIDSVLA

Kd | koff | kon | Binder
0.33 nM | 0.00019 s⁻¹ | 570000 M⁻¹ s⁻¹ | humanized anti-Factor D Fab clone #250 (Fab, V domains shown) VH: QVQLVQSGPELKKPGASVKVSCKASGYTFTNYGLNWVRQAPGQGLEWMGWINTYTGETTYADDFKGRFVFSLDTSVSTAYLQISSLKAEDTAVYYCEREGGVNNWGQGTLVTVSS VL: DIQVTQSPSSLSASVGDRVTITCITSTDIDDDMNWYQQKPGKVPKLLISHGNTLRPGVPSRFSGSGSGTDFTLTISSLQPEDVATYYCLQSDSLPYTFGQGTKLEIK
2.7 nM | 0.00098 s⁻¹ | 360000 M⁻¹ s⁻¹ | humanized anti-Factor D Fab clone #56 (Fab, V domains shown) VH: QVQLVQSGPELKKPGASVKVSCKASGYTFTNYGMNWVKQAPGQGLEWMGWINTYTGETTYADDFKGRFVFSLDTSVSTAYLQISSLKAEDTATYYCEREGGVDNWGQGTLVTVSS VL: DIQVTQSPSSLSASVRDRVTITCITSTDIDDDMNWYQQKPGKVPKLLISGGNTLRPGVPSRFSGSGSGTDFTLTISSLQPEDVATYYCLQSDNLPYTFGQGTKLEIK
0.33 nM | 0.00018 s⁻¹ | 820000 M⁻¹ s⁻¹ | humanized anti-Factor D Fab clone #416 (Fab, V domains shown) VH: QVQLVQSGPELKKPGASVKVSCKASGYTFTSYGMNWVRQAPGQGLEWMGWINTYTGETTYADDFKGRFVFSLDTSVSTAYLQISSLKAEDTAVYYCEREGGVNNWGQGTLVTVSS VL: DIQVTQSPSSLSASVGDRVTITCITSTDIDDDMNWYQQKPGKVPKLLISDGNTLRPGVPSRFSGSGSGTDFTLTISSLQPEDVATYYCLQSDSLPYTFGQGTKLEIK
2.7 nM | 0.0012 s⁻¹ | 440000 M⁻¹ s⁻¹ | chimeric 166-32 Fab (Fab, V domains shown, Tested as a Fab; also called chimeric Fab) VH: QIQLVQSGPELKKPGETVKISCKASGYTFTNYGMNWVKQAPGKGLKWMGWINTYTGETTYADDFKGRFVFSLETSASTAYLEINNLKNEDMATYFCEREGGVDNWGQGTTLTVSS VL: ETTVTQSPASLSMAIGEKVTIRCITSTDIDDDMNWYQQKPGEPPKLLISGGNTLRPGVPSRFSSSGYGADFVFTIDNMLSEDVADYYCLQSDNLPYTFGGGTRLEIK
